We go through 41 sequences from the nanobody polyreactivity screen of Harvey et al. (2022).

This data set is described as follows: yeast display, Sf9 membrane polyspecificity reagent, FACS + sequencing; frameworks hold sequencing errors. Summed up: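 Galactose-induced (36–48 hours) yeast carrying a synthetic nanobody display library were exposed to 10% biotinylated, detergent-solubilized Sf9 membrane reagent at 4 °C for 1 hour. FACS followed streptavidin microbead enrichment, using low and high (top ~1%) gates for expression (anti-HA) and reagent binding (streptavidin). Colony PCR, MiSeq 2 × 250 sequencing and CDR-length filtering followed. Labels for polyreactivity reflect the gate of origin.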
For the sequence “QVQLVESGGGLVQAGGSLRLSCAASGSIFTRYTMGWCRQAPGKERELVAVISDSSGRTYYADTVKGRFTISRDNGKNTDYLQMNSLKPEDPAVYYCAAEYSDIYEYWGQGTQVTVSS”, the “polyreactivity (PSR sort gate)” value was “low polyreactivity”.
In the case of “QVQLVESGGGLVQAGGSLRLSCAASGSIFTRYTMGWYRQAPGKERELVAVISDSSGRTYYADSVKGRFTISRDNGKNTVYLQMNSLKPEDTAVYYCAAEYSDIYEYWGQGTQVTVSS”, the “polyreactivity (PSR sort gate)” value is recorded as “low polyreactivity”.
Then “QVQLVESGGGLVQAGGSLRLSCAASGSIFTSYAMGWSRQAPGKERELVAAITSGGSTNYADSVKGRFTISRDNAKNTVYLQMNSLKPEDTAVYYCNAKWYWYLTRDAYRYRYTYDYWGQGTQVTVSS”, with “low polyreactivity”; and “QVQLVESGGGLVQAGGSLRLSCAASGSIFTSYAMGWYRQAPGKERELVAAITSTGGSTYYADSVKGRFTISRENAKNTVYLQMNSLKPEDTAVYYCNADGGTPYDYWGQGTQVTVSS”, with “low polyreactivity”.
For the sequence “QVQLVESGGGLVQAGGSLRLSCAASGSIFTTNAMGWYRQAPGKERELVAAISSRGTSTYYADSVKGRFTISRDNAKNTVYLQMNSLKPEDTAVYYCPNPYGYWGQGTQVTVSS”, the “polyreactivity (PSR sort gate)” value is “high polyreactivity”.
Then “QVQLVESGGGLVQAGGSLRLSCAASGSIFTTNAMGWYRQAPGKERELVARIDRAGSTYYADSVKGRFTISRDNAKNTVYLQMNSLKPVDTAVYYCAVEAVLSRPYATKFDYWGQGTQVNVSS”, with “low polyreactivity”; and “QVQLVESGGGLVQAGGSLRLSCAASGSIFTTNAMGWYRQAPGKERELVSAISSRGGSTYYADSVKGRFTISRDNAKNTVYLQMNSLKPEDTAVYYCAARYRWPIPGTQYEYWGQGTQVTVSS”, with “low polyreactivity”.
Then “QVQLVESGGGLVQAGGSLRLSCAASGSIFTVYAMGWYRQAPGKERELVAAIRRTGSRTYYADSVKGRFTISRDNAKNTVYLQMNSLKPEDTAVYYCAADGWYDRRSVRLNYWGQGTQVTVSS”, with “high polyreactivity”.
Then “QVQLVESGGGLVQAGGSLRLSCAASGSIFTVYTMGWYRQAPGKERELVAAINSRGGTTYYADSVKGRFTISRDNAKNTVYLQMNSLKPEDTAVYYCAAKQRPKSYGPGHYYWGQGTQVTVSS”, with “high polyreactivity”; and “QVQLVESGGGLVQAGGSLRLSCAASGSIFTWYAMGWYRQAPGKERELVAAISEDGGSTYYADSVKGRFTISRDNAKNTVYLQMNSLKPEDTAVFYCATPVASVTGYDYWGQGTQVTVSS”, with “low polyreactivity”; and “QVQLVESGGGLVQAGGSLRLSCAASGSIFTWYAMGWYRQAPGKERELVAAITRGGSTYADSVKGRFTISRDNAKNTVYLQMNSLKPEDTAVYYCNAVYGVYDFNYWGHGTQVTVSS”, with “low polyreactivity”.
For the sequence “QVQLVESGGGLVQAGGSLRLSCAASGSIFTYNAMGWYREAPGKERELVAAIRLSGGSTYYADSVKGRFTISRDNAKNTVYLQMNSLKPEDTAVYYCAAESAAASAVYSVEYDYWGQGTQVTVSS”, the “polyreactivity (PSR sort gate)” value is “low polyreactivity”.
As for “QVQLVESGGGLVQAGGSLRLSCAASGSIFTYYAMGWYRQAPGKERELVAAISYSGGTTYYADSVKGRFTISRDNAKNTVYLQMNSLKPEDTAVYYCNVDADYESQWLSVGYDYWGQGTQVTVSS”, the “polyreactivity (PSR sort gate)” value is on record as “low polyreactivity”.
With “QVQLVESGGGLVQAGGSLRLSCAASGSIFVDNAMGWYRQAPGKERELVAAINWSGGSTYYADSVKGRFTISRDNAKNTVYLQMNSLKQEDTAVYYCNAARPVQTWDEQSWYDYWGQGTQVTVSS”, the “polyreactivity (PSR sort gate)” value is reported as “low polyreactivity”.
Then “QVQLVESGGGLVQAGGSLRLSCAASGSIFVDYAMGWYRQAPGKERELVAAISSGGSTNYADSVKGRFTISRDNAKNTVYLQMNSLKPEDTAVYYCAADGSYGYDYWGQGTQVTVSS”, with “low polyreactivity”; and “QVQLVESGGGLVQAGGSLRLSCAASGSIFVDYAMGWYRQAPGKERELVASISGGGSSTYYADSVMGRFTISRDNAKNTVYLQMNSLKPEDTALYYCARDGVRSSSEYDYWGQGTQVTVSS”, with “low polyreactivity”; and “QVQLVESGGGLVQAGGSLRLSCAASGSIFVENAMGWYRQAPGEERELVAAISSSGDSTYYADSVKGRFTISRDNAKNTVYLQINSLKPEDTAVYYCNRRRPRYYWGQGTQVTVSS”, with “high polyreactivity”.
Then “QVQLVESGGGLVQAGGSLRLSCAASGSIFVEYAMGVYREAPGKERELVATINLSAGSTYYADSVKGRFTISRDNAMNTGYLQMNRLKPEDTAVYYCAALYYWDQPQLEFSYLGQGTQVTVSS”, with “low polyreactivity”; and “QVQLVESGGGLVQAGGSLRLSCAASGSIFVEYDMGWYIQAPGKERELVADISGTGNTYYADSVKGRFTISRDNAQNTVYLQMNSLKPEDTSVYYCAAGTYFTNYWSPFVWYDYWGQGTQVTVSS”, with “high polyreactivity”; and “QVQLVESGGGLVQAGGSLRLSCAASGSIFVFYAMGWYRQAPGKERELVAAIDVSDGSTYYADSVKGRFTISRDNAKNTVYLQMNSLKPEDTAVYYCATYVVTYYWWYTYDYWGQGTQVTVSS”, with “low polyreactivity”.
Consider “QVQLVESGGGLVQAGGSLRLSCAASGSIFVGNAMGWSRQAPGKERELVAAISLSGGSTYFADSVKGRFTISRDNAKNTVYLQMNSLKPDDTAVYYCAAQTKPASRVTYYWYYYWGQGTQVTVSS”, for which the “polyreactivity (PSR sort gate)” value is given as “low polyreactivity”.
Then “QVQLVESGGGLVQAGGSLRLSCAASGSIFVGNAMGWYRQAPGKERELVAAISSSGGSTYYADSVKGRFTISRDNAKNTVYLQMNSLKPEDTAVYYCAADTYSTSVYYYWGQGTQVTVSS”, with “low polyreactivity”; and “QVQLVESGGGLVQAGGSLRLSCAASGSIFVGNAMGWYRQAPGKERELVAAITRSGGRTYYADSVKGRFTISRDNAKNTVYLQMNSLKPEDTAVYYCNAVYWTVYSREYDYWGQGTQVTVSS”, with “high polyreactivity”; and “QVQLVESGGGLVQAGGSLRLSCAASGSIFVGNAMGWYRQAPGKERELVAGISKSGSRTYYADSVKGRFTISRDNAKNTVYVQMNSLKPEDTSVYYCAAGKVAYYTLDYYWGQGTQVTVSS”, with “high polyreactivity”.
Then “QVQLVESGGGLVQAGGSLRLSCAASGSIFVGNAMGWYRQAPGKEWELVAAISAGGSTYYADSVKGRFTISRDNAKNTVYLKLNSLKTEDTAVYYCAAYYVRRYSSRPKDDYWGQGTQVTVSS”, with “low polyreactivity”; and “QVQLVESGGGLVQAGGSLRLSCAASGSIFVGYAMGWYRQAPGKERELVAAIRSGGSTKYADSVKGRFTISRDNAKNTVYLQMNSLKAEDTAVYYCNVEVHPYYWVDNFHRFPVLHNYWGQGTQVTVSS”, with “low polyreactivity”.
Then “QVQLVESGGGLVQAGGSLRLSCAASGSIFVGYAMGWYRQAPGKERELVAAISWSGDSTYYADSVKGRFTISRDNAKNTVYLQMNSLKPEDTAVYYCAVDYAEIGPRREVEYDYWGQGTQVTVSS”, with “low polyreactivity”; and “QVQLVESGGGLVQAGGSLRLSCAASGSIFVGYAMGWYRQAPGKERELVATISSSATSTYYADSVKGRFTISRDNATNTVYLQMNSLKPEDTAVYSCAVERDYGWPIYIRWHFDYWGQGTQVTVAS”, with “low polyreactivity”; and “QVQLVESGGGLVQAGGSLRLSCAASGSIFVGYARGWYRQAPGKERELVAAISFSGGSTYYADSVKGRFTLSRDNAKNTVYLQMNSLKPEDTAVYYCNAYSWYNGIGNYDYWGQGTQVTVSS”, with “low polyreactivity”.
In the case of “QVQLVESGGGLVQAGGSLRLSCAASGSIFVGYDMGWYRQAPGKARELVAAITRDGDTNYADSVKGRFTISRDNAKNTVYLQMNSLKPEDTAVYYCAADRWLYSWFFNYDQGDYWGQGTQVTVSS”, the “polyreactivity (PSR sort gate)” value was “low polyreactivity”.
Then “QVQLVESGGGLVQAGGSLRLSCAASGSIFVGYDMGWYRQAPGKERELVASINGGDSTNYADSVKGRFTISRDNAKNTVYLQMNSLKPEDTAVYYCAKDVTYTDEYDYWGQGTQVTVSS”, with “low polyreactivity”; and “QVQLVESGGGLVQAGGSLRLSCAASGSIFVGYDMGWYRQAPGKEREWVAAITSSGGGSTYYADSVKGRFTISRDNAKNTVYLQMNSLKPEDTAVYYCAARTSLWWFLKYDYWGQGTQVTVSS”, with “low polyreactivity”.
Then “QVQLVESGGGLVQAGGSLRLSCAASGSIFVGYTMGWYRQAPGKETELVADITYNGGTTYYADSVKGRFTISRDNAKNTVYLQMNSLKPEETAVYYCAADYYYACFPVYYWGQGTQVTVSS”, with “high polyreactivity”; and “QVQLVESGGGLVQAGGSLRLSCAASGSIFVGYVMGWYRQAPGKERELVAAISRSGGRTYYADSVKGRFTISRDNAKNTVYLQMNSLKPEDTAVYYCNADVIDLDYDYWGQGTQVTVSS”, with “low polyreactivity”.
Then “QVQLVESGGGLVQAGGSLRLSCAASGSIFVHNAMGWYRHAPGKERELVAAITWSGGSTYYADSVKGRFTISRDNAKNTVYLQMNSLKPEDTAVYYCAAEDVAAQWAYESPTSYWYYYWGQGTQVTVSS”, with “low polyreactivity”; and “QVQLVESGGGLVQAGGSLRLSCAASGSIFVHYAMGWYRQAPGKERELVARISWRGNTYYADSVKGRFTISRDNAKNTVYLQMNSLKPEDTAVYYCATGQSVIYRYEYWGQGTQVTVSS”, with “low polyreactivity”.
As for “QVQLVESGGGLVQAGGSLRLSCAASGSIFVINAMGWYRQAPGKERELVAAISYSGTGTYYADSVKGRFTISRDNAKNTVYLQMNSLKAEDTAVYYCAADFYYRYRIYDYWGQGTQVTVSS”, the “polyreactivity (PSR sort gate)” value is “low polyreactivity”.
Take “QVQLVESGGGLVQAGGSLRLSCAASGSIFVIYAMGWYRQAPGKERELVAAITYSGGSTYYADSVKGRFTISRDNAKNTVYLQMNSLKPEDTAVYYCAAVRDSRYYDYDYWGQGTQVTVSS”: the “polyreactivity (PSR sort gate)” value is “low polyreactivity”.
Then “QVQLVESGGGLVQAGGSLRLSCAASGSIFVIYSMGWYRQAPGKERELVARITKSGGSTYYADSVKGRFTISRDNAKITVYLQMNSLKPEDTAVYYCNVGYGGSSDGGYDYWGQGTQVTVSS”, with “high polyreactivity”; and “QVQLVESGGGLVQAGGSLRLSCAASGSIFVKNVMGWYRQAPGKERELVAAISRGSSTYYADSVKGRFTISRDNAKNTVYLQMNSLKPEDTAVYYCAARGPYRLRNDEAFDYWGQGTQVTVSS”, with “low polyreactivity”.
Then “QVQLVESGGGLVQAGGSLRLSCAASGSIFVKYAMGWYRQAPGKERELVAAISRSGGSTYYADSVKGRFTISRDNAKNTVYLQMNSLKPEDTAVYYCAASNYKGMNYWGQGTQVTVSS”, with “high polyreactivity”.
